{
  "source": "patent US8242083B2",
  "about": "“Kinase substrates” (PerkinElmer Health Sciences, Inc., priority 2008, dated 2012)",
  "assay_type_in_all_cases": "biochemical",
  "key": {"KDR": {"target": "KDR (Homo sapiens, UniProt P35968)", "sequence (P35968 20-1356, species assumed)": "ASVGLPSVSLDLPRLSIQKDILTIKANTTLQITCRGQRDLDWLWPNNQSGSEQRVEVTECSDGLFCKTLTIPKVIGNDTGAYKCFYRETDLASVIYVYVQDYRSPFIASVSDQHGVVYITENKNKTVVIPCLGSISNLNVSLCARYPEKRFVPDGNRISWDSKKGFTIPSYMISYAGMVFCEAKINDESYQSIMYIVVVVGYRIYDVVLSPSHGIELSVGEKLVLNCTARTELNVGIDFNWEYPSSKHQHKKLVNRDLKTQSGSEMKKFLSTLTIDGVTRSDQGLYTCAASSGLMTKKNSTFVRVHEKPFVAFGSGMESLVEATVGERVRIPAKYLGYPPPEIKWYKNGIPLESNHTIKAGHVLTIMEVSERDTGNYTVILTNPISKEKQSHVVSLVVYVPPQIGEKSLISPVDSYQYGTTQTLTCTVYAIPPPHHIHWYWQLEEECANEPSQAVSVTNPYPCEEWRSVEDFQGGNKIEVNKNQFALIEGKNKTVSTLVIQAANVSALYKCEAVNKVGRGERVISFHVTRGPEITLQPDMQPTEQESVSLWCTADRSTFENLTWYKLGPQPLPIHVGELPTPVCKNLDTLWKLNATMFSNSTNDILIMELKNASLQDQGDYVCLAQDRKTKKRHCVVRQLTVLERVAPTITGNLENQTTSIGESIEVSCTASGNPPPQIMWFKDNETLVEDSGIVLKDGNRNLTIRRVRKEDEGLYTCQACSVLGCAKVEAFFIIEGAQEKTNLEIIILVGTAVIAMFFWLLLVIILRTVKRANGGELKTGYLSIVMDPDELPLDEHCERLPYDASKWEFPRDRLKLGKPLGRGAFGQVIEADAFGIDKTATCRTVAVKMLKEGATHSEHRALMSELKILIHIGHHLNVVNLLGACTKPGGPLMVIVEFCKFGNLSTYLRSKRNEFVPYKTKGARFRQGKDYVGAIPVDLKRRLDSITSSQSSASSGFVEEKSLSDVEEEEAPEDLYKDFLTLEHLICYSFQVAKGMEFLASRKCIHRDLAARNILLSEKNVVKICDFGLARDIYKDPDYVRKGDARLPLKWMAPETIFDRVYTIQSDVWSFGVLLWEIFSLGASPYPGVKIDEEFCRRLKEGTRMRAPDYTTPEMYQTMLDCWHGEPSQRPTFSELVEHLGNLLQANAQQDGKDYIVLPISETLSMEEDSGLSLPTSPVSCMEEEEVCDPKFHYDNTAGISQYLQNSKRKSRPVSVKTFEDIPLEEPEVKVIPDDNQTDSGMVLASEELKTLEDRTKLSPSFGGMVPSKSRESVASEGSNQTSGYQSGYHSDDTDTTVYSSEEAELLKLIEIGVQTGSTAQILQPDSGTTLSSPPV", "experiment": "TR-FRET kinase assay, KDR", "conditions": "Kinase Concentration 0.25 nM; 50 nM ULight-labeled substrate, 200 micromolar ATP, 2 hours", "protocol": "(§1) TR-FRET kinase assays are performed under standardized conditions: various individual kinases are incubated with 50 nM of kinase substrate BRB1 labeled with the TR-FRET acceptor dye ULight (PerkinElmer) and 200 micromolar ATP in 10 μL of kinase assay buffer (50 mM HEPES pH7.5, 10 mM MgCl2, 3 mM MnCl2, 1 mM EGTA, 2 mM DTT and 0.01% Tween-20) for 2 hours at room temperature. Reactions are stopped with EDTA, and anti-phospho-tyrosine antibodies (clone PT66) labeled with the TR-FRET europium chelate donor dye are added to a final concentration of 2 nM in a final volume of 20 μL. The TR-FRET signal emitted at 665 nm is read one hour after the addition of antibodies using a TR-FRET plate reader such as the Envision® Multilabel Plate reader (PerkinElmer). The emitted signal at 665 nm is proportional to the extent of peptide phosphorylation, Control reactions indicative of background are performed excluding ATP from the reaction.\n(§2) Assay conditions are identical to those used described for FIG. 1."}, "RON": {"target": "RON (Homo sapiens, UniProt Q04912)", "experiment": "TR-FRET kinase assay, RON", "conditions": "Kinase Concentration 0.25 nM; 50 nM ULight-labeled substrate, 200 micromolar ATP, 2 hours", "protocol": "as §1, §2"}, "EphA6": {"target": "T1, EphA6 (Homo sapiens, UniProt Q9UF33)", "T1 sequence (Q9UF33 23-1036)": "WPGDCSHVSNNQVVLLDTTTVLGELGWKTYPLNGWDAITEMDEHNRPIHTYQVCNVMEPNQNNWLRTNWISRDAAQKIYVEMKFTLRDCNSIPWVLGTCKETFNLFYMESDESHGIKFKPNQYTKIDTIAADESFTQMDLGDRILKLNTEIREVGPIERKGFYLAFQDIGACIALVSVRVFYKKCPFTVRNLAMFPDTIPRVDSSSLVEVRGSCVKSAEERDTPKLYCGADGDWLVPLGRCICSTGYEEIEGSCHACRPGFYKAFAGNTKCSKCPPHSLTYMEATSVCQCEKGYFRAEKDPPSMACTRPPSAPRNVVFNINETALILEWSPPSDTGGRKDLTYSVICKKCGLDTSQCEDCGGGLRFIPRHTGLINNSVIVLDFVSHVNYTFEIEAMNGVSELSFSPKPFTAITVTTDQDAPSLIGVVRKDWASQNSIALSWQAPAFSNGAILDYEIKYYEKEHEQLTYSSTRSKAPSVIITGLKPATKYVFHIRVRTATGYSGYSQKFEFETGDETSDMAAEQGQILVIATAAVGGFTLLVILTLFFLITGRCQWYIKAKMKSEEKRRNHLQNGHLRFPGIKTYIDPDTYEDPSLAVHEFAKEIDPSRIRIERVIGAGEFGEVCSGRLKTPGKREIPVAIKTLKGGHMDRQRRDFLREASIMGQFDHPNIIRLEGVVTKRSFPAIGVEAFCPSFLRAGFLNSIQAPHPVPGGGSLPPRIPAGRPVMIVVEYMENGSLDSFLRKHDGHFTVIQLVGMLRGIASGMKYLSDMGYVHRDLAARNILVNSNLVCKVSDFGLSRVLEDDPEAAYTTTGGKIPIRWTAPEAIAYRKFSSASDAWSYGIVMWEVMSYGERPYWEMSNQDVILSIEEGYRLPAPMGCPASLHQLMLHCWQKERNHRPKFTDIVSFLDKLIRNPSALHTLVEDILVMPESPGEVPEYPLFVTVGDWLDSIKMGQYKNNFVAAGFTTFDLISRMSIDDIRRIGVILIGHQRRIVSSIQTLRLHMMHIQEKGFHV", "experiment": "TR-FRET kinase assay, EphA6", "conditions": "Kinase Concentration 0.5 nM; 50 nM ULight-labeled substrate, 200 micromolar ATP, 2 hours", "protocol": "as §1, §2"}, "FGFR3": {"target": "FGFR3 (Homo sapiens, UniProt P22607)", "sequence (P22607 23-806, species assumed)": "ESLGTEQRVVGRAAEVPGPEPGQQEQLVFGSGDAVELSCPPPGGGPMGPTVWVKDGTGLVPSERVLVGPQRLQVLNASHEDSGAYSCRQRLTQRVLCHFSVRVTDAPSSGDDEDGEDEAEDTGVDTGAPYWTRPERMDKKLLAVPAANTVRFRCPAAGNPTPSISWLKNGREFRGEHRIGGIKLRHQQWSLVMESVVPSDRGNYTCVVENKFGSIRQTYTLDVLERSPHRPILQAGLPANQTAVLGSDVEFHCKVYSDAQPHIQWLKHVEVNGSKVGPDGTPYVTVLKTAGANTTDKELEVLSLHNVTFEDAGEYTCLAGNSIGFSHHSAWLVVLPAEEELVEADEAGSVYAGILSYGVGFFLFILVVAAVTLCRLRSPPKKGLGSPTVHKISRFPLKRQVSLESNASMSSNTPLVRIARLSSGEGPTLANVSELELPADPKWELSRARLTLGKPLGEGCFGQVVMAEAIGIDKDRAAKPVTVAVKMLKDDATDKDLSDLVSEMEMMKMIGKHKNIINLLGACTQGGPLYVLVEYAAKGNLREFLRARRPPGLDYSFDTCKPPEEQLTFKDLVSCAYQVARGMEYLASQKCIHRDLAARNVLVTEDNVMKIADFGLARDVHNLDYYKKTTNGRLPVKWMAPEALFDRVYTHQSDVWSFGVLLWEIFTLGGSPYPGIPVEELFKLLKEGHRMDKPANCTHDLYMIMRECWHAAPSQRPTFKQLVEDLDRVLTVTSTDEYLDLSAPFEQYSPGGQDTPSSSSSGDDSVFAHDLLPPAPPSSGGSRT", "experiment": "TR-FRET kinase assay, FGFR3", "conditions": "Kinase Concentration 0.25 nM; 50 nM ULight-labeled substrate, 200 micromolar ATP, 2 hours", "protocol": "as §1, §2"}, "TXK": {"target": "T2, TXK (Homo sapiens, UniProt P42681)", "T2 sequence (P42681 1-527)": "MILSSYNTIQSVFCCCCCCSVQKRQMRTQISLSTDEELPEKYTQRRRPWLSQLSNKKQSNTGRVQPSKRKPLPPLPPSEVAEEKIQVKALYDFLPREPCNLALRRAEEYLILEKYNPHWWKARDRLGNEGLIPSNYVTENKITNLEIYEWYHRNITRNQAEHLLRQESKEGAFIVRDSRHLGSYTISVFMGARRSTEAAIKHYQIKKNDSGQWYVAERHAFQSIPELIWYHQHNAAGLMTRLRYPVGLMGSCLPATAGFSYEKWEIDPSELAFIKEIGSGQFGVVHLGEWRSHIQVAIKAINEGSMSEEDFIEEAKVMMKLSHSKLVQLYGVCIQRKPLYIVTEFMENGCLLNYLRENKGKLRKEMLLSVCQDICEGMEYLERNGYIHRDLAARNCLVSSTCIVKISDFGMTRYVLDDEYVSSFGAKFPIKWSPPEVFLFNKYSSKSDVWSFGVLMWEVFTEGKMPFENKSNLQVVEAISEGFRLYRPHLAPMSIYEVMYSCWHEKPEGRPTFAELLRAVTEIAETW", "experiment": "TR-FRET kinase assay, TXK", "conditions": "Kinase Concentration 3 nM; 50 nM ULight-labeled substrate, 200 micromolar ATP, 2 hours", "protocol": "as §1, §2"}, "BMX": {"target": "T3, BMX (Homo sapiens, UniProt P51813)", "T3 sequence (P51813 1-675)": "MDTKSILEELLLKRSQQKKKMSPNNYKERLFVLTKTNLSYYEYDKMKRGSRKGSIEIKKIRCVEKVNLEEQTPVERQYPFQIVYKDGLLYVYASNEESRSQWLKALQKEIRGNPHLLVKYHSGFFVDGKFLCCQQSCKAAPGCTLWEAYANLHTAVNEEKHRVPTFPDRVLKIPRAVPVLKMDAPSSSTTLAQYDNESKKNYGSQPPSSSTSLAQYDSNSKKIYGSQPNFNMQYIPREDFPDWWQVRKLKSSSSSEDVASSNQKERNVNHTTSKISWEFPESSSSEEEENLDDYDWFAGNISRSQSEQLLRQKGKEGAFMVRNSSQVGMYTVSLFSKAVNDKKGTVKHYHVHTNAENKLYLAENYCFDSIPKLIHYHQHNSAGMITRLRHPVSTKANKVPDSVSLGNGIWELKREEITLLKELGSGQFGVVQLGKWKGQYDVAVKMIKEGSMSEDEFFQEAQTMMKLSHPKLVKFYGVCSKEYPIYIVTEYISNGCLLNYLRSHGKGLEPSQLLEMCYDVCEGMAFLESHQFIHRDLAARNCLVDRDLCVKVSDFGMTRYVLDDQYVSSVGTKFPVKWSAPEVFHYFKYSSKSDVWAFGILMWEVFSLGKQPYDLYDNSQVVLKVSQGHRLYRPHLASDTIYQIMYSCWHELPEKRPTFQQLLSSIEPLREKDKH", "experiment": "TR-FRET kinase assay, BMX", "conditions": "Kinase Concentration 0.5 nM; 50 nM ULight-labeled substrate, 200 micromolar ATP, 2 hours", "protocol": "as §1, §2"}, "AXL": {"target": "AXL (Homo sapiens, UniProt P30530)", "experiment": "TR-FRET kinase assay, AXL", "conditions": "Kinase Concentration 4 nM; 50 nM ULight-labeled substrate, 200 micromolar ATP, 2 hours", "protocol": "as §1, §2"}},
  "data": [
    {"sequence": "C AYE AYE AYE K EYA EYA EYA K AYA EYE R (CAYEAYEAYEKEYAEYAEYAKAYAEYER; tyrosine kinase substrate peptide) [BRB1]", "values": [
      {"measurement": "Signal to Noise ratio with BRB1 Peptide", "setting": "KDR", "result": 16.9},
      {"measurement": "Signal to Noise ratio with BRB1 Peptide", "setting": "RON", "result": 3.5},
      {"measurement": "Signal to Noise ratio with BRB1 Peptide", "setting": "EphA6", "result": 5.4},
      {"measurement": "Signal to Noise ratio with BRB1 Peptide", "setting": "FGFR3", "result": 24.4},
      {"measurement": "Signal to Noise ratio with BRB1 Peptide", "setting": "TXK", "result": 5.9},
      {"measurement": "Signal to Noise ratio with BRB1 Peptide", "setting": "BMX", "result": 7.1},
      {"measurement": "Signal to Noise ratio with BRB1 Peptide", "setting": "AXL", "result": 1.8}
    ]}
  ]
}
